Numbering of substitutions follows the chain as printed. Names may count otherwise.
Tests used:
Experiment in all cases: ELISA
[1] = target: T1, c156h human-chicken CD81 chimera (chicken; human, UniProt P60033 1-236)
T1 construct: as m30; not shown: C-terminal V5 and 6xHis tags
T1 chain: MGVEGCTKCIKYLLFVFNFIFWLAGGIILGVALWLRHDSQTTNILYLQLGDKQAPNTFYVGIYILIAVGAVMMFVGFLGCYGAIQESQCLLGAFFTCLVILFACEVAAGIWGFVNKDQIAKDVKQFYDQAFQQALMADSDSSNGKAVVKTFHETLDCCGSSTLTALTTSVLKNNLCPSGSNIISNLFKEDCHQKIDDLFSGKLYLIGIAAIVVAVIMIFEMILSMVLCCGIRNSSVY
Method: (§1) To identify the epitopes to which each of the anti-human CD81 antibodies (002-A07 and 005-001) bind, ELISA assays were performed using human-chicken CD81 chimera constructs listed in Table 6. Each construct was transiently expressed in CHO cells and its cell membrane fraction was solubilized with detergents and immobilized onto a plate.
(§2) As control antibodies, human IgG4 antibody (Acris Antibodies GmbH) and mouse IgG antibody were used. Human-chicken chimera protein was captured via His tag introduced into the C-terminal by adding the membrane fraction (5 μg/100 μL/well) prepared (1) above to Ni NTA His Sorb plate (QIAGEN) in the presence of 1% (w/v) n-Octylglucoside and incubating for 3 hours at 4° C. After washing with TBST (TBS, 0.05% (v/v) Tween 20) three times, an anti-human CD81 antibody or a control antibody (50 μL/well) was added and incubated for 1 hour at room temperature (RT). After washing, 2000 fold-diluted HRP-labeled anti-human IgG4 antibody (Mouse anti-human IgG₄ HRP clone:HP6023 Beckman Coulter) or 1000 fold-diluted HRP-labeled anti-mouse IgG antibody (Invitrogen) (50 μL/well) were added. The plate was incubated for 1 hour at RT and washed with TBST three times. And then, peroxidase activity was determined by TMB One solution (Promega; Code 53025). The reaction was stopped with 2 M H₂SO₄ (50 μL) and absorbance at 450 nm was measured.

[2] = target: T2, h175c human-chicken CD81 chimera (human; chicken, UniProt P60033 1-236)
T2 construct: as m30; not shown: C-terminal V5 and 6xHis tags
T2 chain: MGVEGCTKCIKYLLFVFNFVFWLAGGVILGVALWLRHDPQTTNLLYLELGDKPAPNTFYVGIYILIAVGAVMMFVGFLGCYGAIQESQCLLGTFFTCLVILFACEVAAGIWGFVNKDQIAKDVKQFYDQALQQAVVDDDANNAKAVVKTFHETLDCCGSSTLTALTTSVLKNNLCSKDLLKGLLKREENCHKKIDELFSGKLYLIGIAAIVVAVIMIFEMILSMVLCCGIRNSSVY
Method: as §1, §2

[3] = target: T3, c175h human-chicken CD81 chimera (chicken; human)
T3 construct: as m30; not shown: C-terminal V5 and 6xHis tags
T3 chain: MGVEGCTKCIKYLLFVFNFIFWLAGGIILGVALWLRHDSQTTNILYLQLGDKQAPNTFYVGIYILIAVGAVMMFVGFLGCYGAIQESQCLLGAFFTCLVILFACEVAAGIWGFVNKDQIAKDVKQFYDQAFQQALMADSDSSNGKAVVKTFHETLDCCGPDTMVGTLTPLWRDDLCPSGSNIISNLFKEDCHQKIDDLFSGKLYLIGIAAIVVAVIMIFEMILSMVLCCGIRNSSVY
Method: as §1, §2

[4] = target: T4, c138h human-chicken CD81 chimera (chicken; human, UniProt P60033 1-236)
T4 construct: as m30; not shown: C-terminal V5 and 6xHis tags
T4 chain: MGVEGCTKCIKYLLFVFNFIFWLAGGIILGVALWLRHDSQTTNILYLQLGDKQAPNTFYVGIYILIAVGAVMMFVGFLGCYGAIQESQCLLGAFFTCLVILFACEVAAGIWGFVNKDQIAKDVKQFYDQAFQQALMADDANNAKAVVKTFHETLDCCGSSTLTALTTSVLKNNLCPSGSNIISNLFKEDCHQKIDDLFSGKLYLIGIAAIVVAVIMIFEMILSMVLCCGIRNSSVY
Method: as §1, §2

[5] = target: T5, h80c human-chicken CD81 chimera (human; chicken)
T5 construct: as m30; not shown: C-terminal V5 and 6xHis tags
T5 chain: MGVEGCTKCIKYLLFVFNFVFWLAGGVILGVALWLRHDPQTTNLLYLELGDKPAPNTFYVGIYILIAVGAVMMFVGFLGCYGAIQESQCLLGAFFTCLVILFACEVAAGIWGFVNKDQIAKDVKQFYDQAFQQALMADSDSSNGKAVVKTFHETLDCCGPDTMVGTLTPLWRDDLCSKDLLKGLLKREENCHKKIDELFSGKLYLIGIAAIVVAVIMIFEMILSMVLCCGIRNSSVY
Method: as §1, §2

[6] = target: T6, c190h human-chicken CD81 chimera (chicken; human)
T6 construct: as m30; not shown: C-terminal V5 and 6xHis tags
T6 chain: T5 chain with V20I, V27I, P39S, L44I, E48Q, P53Q, K193Q, E197D
Method: as §1, §2

[7] = target: T7, cCD81 (chicken CD81 construct with C-terminal V5 and 6xHis tags) (chicken)
T7 construct: as m30; not shown: C-terminal V5 and 6xHis tags
T7 chain: T5 chain with V20I, V27I, P39S, L44I, E48Q, P53Q
Method: as §1, §2

[8] = target: T8, h190c human-chicken CD81 chimera (human; chicken, UniProt P60033 1-236)
T8 construct: as m30; not shown: C-terminal V5 and 6xHis tags
T8 chain: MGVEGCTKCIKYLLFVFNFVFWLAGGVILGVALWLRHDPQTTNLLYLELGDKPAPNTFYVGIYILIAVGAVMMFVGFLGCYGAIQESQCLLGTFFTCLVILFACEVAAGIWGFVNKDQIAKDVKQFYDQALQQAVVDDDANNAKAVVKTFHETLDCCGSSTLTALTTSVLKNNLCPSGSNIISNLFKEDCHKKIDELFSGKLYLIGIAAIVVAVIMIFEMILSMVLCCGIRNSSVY
Method: as §1, §2

B1: 002-A07 IgG4 antibody (antibody)
heavy: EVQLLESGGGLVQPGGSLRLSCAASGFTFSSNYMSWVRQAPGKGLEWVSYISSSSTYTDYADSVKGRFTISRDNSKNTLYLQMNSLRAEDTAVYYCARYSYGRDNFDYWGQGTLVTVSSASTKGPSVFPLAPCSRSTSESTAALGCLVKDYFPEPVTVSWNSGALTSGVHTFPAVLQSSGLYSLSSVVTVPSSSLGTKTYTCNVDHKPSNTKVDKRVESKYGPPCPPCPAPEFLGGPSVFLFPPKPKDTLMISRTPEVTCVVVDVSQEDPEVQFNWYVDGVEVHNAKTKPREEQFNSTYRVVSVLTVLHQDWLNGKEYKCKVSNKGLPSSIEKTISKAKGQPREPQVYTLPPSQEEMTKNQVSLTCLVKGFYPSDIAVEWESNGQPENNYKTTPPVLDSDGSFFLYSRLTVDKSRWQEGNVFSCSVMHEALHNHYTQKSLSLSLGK
light: QSVLTQPPSASGTPGQRVTISCTGSTSNIGAGYDTHWYQQLPGTAPKLLIYGNSNRPSGVPDRFSGSKSGTSASLAISGLRSEDEADYYCQSYDTNLSVWVFGGGTKLTVLGQPKAAPSVTLFPPSSEELQANKATLVCLISDFYPGAVTVAWKADSSPVKAGVETTTPSKQSNNKYAASSYLSLTPEQWKSHRSYSCQVTHEGSTVEKTVAPTECS
notes: human IgG4 S228P, lambda light chain
[1]
  absorbance at 450 nm relative to hCD81: < 10%
[2]
  binding result: binds
[3]
  absorbance at 450 nm relative to hCD81: < 10%
[4]
  absorbance at 450 nm relative to hCD81: < 10%
[5]
  absorbance at 450 nm relative to hCD81: < 10%
[6]
  absorbance at 450 nm relative to hCD81: < 10%
[7]
  absorbance at 450 nm relative to hCD81: < 10%
[8]
  binding result: binds

Source: US20150139990A1 (DAINIPPON SUMITOMO PHARMA, published 2015)
